In patent US20200010567A1 (NEURIMMUNE, published 2020):

Key:
[1] = target: T1, (GA)15: H-CHHHHHH(GA)15-OH; test: indirect ELISA, uncoupled peptide coated, antibody titrated [also D00012 FIG. 3C]
T1 construct: synthetic, not coupled to BSA; also called poly-GA DPR protein peptide
T1 peptide: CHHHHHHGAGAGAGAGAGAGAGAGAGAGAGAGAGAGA
Method: (§1) In brief, dipeptide repeat proteins were synthesized and purified by Schafer-N(Copenhagen, Denmark): (GA)₁₅: H-CHHHHHH(GA)₁₅-OH; (GP)₁₅: H-C(GP)₁₅-OH; (GR)₁₅: H-C(GR)₁₅-OH; (PA)₁₅: H-C(PA)₁₅-OH; (PR)₁₅: H—C(PR)₁₅-OH. DPR protein peptides were then conjugated via a bifunctional linker (SMCC) to bovine serum albumin (BSA). 96-well microplates (Corning Incorporated, Corning, USA) were coated with BSA-coupled or -uncoupled dipeptide repeat protein peptides at a concentration of either 5 μg/ml or 20 μg/ml in coating buffer (15 mM Na₂CO₃, 35 mM NaHCO₃, pH 9.42). Non-specific binding sites were blocked for 1 h at room temperature with PBS/0.1% Tween®-20 containing 2% BSA (Sigma-Aldrich, Buchs, Switzerland). Primary antibodies were diluted to the indicated concentrations and incubated 1 h at room temperature, followed by incubation with a donkey anti-human IgG Fcγ-specific antibody conjugated with HRP (Jackson ImmunoResearch Laboratories, Inc., West Grove, USA). Binding was determined by measurement of HRP activity in a standard colorimetric assay. EC₅₀ values were estimated by non-linear regression using GraphPad Prism software (San Diego, USA).

[2] = target: T2, BSA-coupled (GA)15 DPR protein peptide (bovine, conjugated via a bifunctional linker (SMCC) to bovine serum albumin); test: indirect ELISA, BSA-coupled peptide coated, antibody titrated [also D00013 FIG. 3D]
T2 construct: also called BSA-(GA)15
Method: as §1

GA2: H-(GA)2HHHHHH-NH2 [3] = target: T3, GA2: H-(GA)2HHHHHH-NH2; test: indirect ELISA, His-tagged peptide coated at 50 ug/ml, antibody titrated [also D00025 FIG. 7H]
T3 peptide: H-GAGAHHHHHH-NH2
Method: as §1, with “96-well” for “In brief, dipeptide repeat proteins were synthesized and purified by Schafer-N(Copenhagen, Denmark): (GA)₁₅: H-CHHHHHH(GA)₁₅-OH; (GP)₁₅: H-C(GP)₁₅-OH; (GR)₁₅: H-C(GR)₁₅-OH; (PA)₁₅: H-C(PA)₁₅-OH; (PR)₁₅: H—C(PR)₁₅-OH. DPR protein peptides were then conjugated via a bifunctional linker (SMCC) to bovine serum albumin (BSA). 96-well”, “with” for “with BSA-coupled or -uncoupled”, “50” for “either 5 μg/ml or 20”
(§2) High affinity binding was detected for poly-GA DPRs harboring 10 or 20 (GA)-repeats, reflected in an EC₅₀ in the subnanomolar or low nanomolar range (FIGS. 7A, 7C-7I).

GA4: H-(GA)4HHHHHH-NH2 [4] = target: T4, GA4: H-(GA)4HHHHHH-NH2; test: as above
T4 peptide: H-GAGAGAGAHHHHHH-NH2
Method: as §1, with “96-well” for “In brief, dipeptide repeat proteins were synthesized and purified by Schafer-N(Copenhagen, Denmark): (GA)₁₅: H-CHHHHHH(GA)₁₅-OH; (GP)₁₅: H-C(GP)₁₅-OH; (GR)₁₅: H-C(GR)₁₅-OH; (PA)₁₅: H-C(PA)₁₅-OH; (PR)₁₅: H—C(PR)₁₅-OH. DPR protein peptides were then conjugated via a bifunctional linker (SMCC) to bovine serum albumin (BSA). 96-well”, “with” for “with BSA-coupled or -uncoupled”, “50” for “either 5 μg/ml or 20”
as §2

GA3: H-(GA)3HHHHHH-NH2 = target: T5, GA3: H-(GA)3HHHHHH-NH2; test: as above
T5 peptide: H-GAGAGAHHHHHH-NH2
Method: as §1, with “96-well” for “In brief, dipeptide repeat proteins were synthesized and purified by Schafer-N(Copenhagen, Denmark): (GA)₁₅: H-CHHHHHH(GA)₁₅-OH; (GP)₁₅: H-C(GP)₁₅-OH; (GR)₁₅: H-C(GR)₁₅-OH; (PA)₁₅: H-C(PA)₁₅-OH; (PR)₁₅: H—C(PR)₁₅-OH. DPR protein peptides were then conjugated via a bifunctional linker (SMCC) to bovine serum albumin (BSA). 96-well”, “with” for “with BSA-coupled or -uncoupled”, “50” for “either 5 μg/ml or 20”
as §2

GA5: H-(GA)5HHHHHH-NH2 = target: T6, GA5: H-(GA)5HHHHHH-NH2; test: indirect ELISA, His-tagged peptide coated at 50 ug/ml, antibody titrated [also D00025 FIG. 7I]
T6 peptide: H-GAGAGAGAGAHHHHHH-NH2
Method: as §1, with “96-well” for “In brief, dipeptide repeat proteins were synthesized and purified by Schafer-N(Copenhagen, Denmark): (GA)₁₅: H-CHHHHHH(GA)₁₅-OH; (GP)₁₅: H-C(GP)₁₅-OH; (GR)₁₅: H-C(GR)₁₅-OH; (PA)₁₅: H-C(PA)₁₅-OH; (PR)₁₅: H—C(PR)₁₅-OH. DPR protein peptides were then conjugated via a bifunctional linker (SMCC) to bovine serum albumin (BSA). 96-well”, “with” for “with BSA-coupled or -uncoupled”, “50” for “either 5 μg/ml or 20”
as §2

GA2: H-(GA)2HHHHHH-NH2 [5] = target: T3, GA2: H-(GA)2HHHHHH-NH2; test: as above
Method: as §1, with “96-well” for “In brief, dipeptide repeat proteins were synthesized and purified by Schafer-N(Copenhagen, Denmark): (GA)₁₅: H-CHHHHHH(GA)₁₅-OH; (GP)₁₅: H-C(GP)₁₅-OH; (GR)₁₅: H-C(GR)₁₅-OH; (PA)₁₅: H-C(PA)₁₅-OH; (PR)₁₅: H—C(PR)₁₅-OH. DPR protein peptides were then conjugated via a bifunctional linker (SMCC) to bovine serum albumin (BSA). 96-well”, “with” for “with BSA-coupled or -uncoupled”, “50” for “either 5 μg/ml or 20”
as §2

GA4: H-(GA)4HHHHHH-NH2 [6] = target: T4, GA4: H-(GA)4HHHHHH-NH2; test: as above
Method: as §1, with “96-well” for “In brief, dipeptide repeat proteins were synthesized and purified by Schafer-N(Copenhagen, Denmark): (GA)₁₅: H-CHHHHHH(GA)₁₅-OH; (GP)₁₅: H-C(GP)₁₅-OH; (GR)₁₅: H-C(GR)₁₅-OH; (PA)₁₅: H-C(PA)₁₅-OH; (PR)₁₅: H—C(PR)₁₅-OH. DPR protein peptides were then conjugated via a bifunctional linker (SMCC) to bovine serum albumin (BSA). 96-well”, “with” for “with BSA-coupled or -uncoupled”, “50” for “either 5 μg/ml or 20”
as §2

[7] = target: T2, BSA-coupled (GA)15 DPR protein peptide; test: indirect ELISA, BSA-coupled peptide coated, antibody titrated [also D00013 FIG. 3E]
Method: as §1

[8] = target: T1, (GA)15: H-CHHHHHH(GA)15-OH; test: indirect ELISA, coated peptide
[9] = target: T1, (GA)15: H-CHHHHHH(GA)15-OH; test: indirect ELISA, uncoupled peptide coated, antibody titrated [also D00010 FIG. 2H]
Method: as §1, with “(PR)₁₅: H—C(PR)₁₅-OH. 96-well microplates” for “(PR)₁₅: H—C(PR)₁₅-OH. DPR protein peptides were then conjugated via a bifunctional linker (SMCC) to bovine serum albumin (BSA). 96-well microplates”, “coated with dipeptide repeat” for “coated with BSA-coupled or -uncoupled dipeptide repeat”, “and incubated for 1 h” for “and incubated 1 h”, “Diego, USA). The binding specificity and EC₅₀ of human-derived antibodies for C9orf72 dipeptide repeat protein peptides (GA)₁₅, (GP)₁₅, (GR)₁₅, (PA)₁₅ and (PR)₁₅ were determined by indirect ELISA.” for “Diego, USA).”

(GR)15: H-C(GR)15-OH = target: T7, (GR)15: H-C(GR)15-OH; test: indirect ELISA, uncoupled peptide coated, antibody titrated [also D00014 FIG. 3I]
T7 construct: synthetic, not coupled to BSA; also called poly-GR DPR protein peptide
T7 peptide: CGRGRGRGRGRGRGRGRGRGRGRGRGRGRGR
Method: as §1

T2 sequence (P02769 25-607 limits assumed): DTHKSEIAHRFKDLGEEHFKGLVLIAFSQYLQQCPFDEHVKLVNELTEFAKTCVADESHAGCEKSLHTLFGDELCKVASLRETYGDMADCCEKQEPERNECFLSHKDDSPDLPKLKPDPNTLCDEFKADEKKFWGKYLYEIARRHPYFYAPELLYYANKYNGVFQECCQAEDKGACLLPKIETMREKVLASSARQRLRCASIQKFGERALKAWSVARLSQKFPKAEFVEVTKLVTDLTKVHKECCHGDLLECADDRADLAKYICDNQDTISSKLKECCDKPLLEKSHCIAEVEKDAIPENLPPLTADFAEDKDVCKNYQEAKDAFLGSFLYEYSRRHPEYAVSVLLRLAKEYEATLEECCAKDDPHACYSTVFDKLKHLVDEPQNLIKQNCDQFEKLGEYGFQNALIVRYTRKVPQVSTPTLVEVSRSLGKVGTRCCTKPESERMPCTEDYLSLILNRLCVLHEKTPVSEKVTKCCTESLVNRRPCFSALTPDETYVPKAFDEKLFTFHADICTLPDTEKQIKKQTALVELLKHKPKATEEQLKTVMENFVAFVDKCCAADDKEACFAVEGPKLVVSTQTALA

B1: NI-308.15O7 (antibody, V domains shown)
VH: QVQLVESGGGVVQPGRSLRLSCAASGFTFSNHAMHWVRQAPGKGLEWVAVISYDGENTYYADSIEGRFTISRDNFKNTLFLQMYSLTADDTAMYFCARGGRRGHFTSYYLDYWGQGTLVTVSS
VL: CDIQMTQSPSSLSASVGDRVTITCRASQNIDKYLNWYQQIPGKAPKLLIYAASSLHSGVPSRFSGSGSGTDFSLTISSLQPEDFAIYYCQQSYSSFRTFGQGTKLEIK
EC50 [1]: 0.18 nM

B2: NI-308.28G1 (antibody, V domains shown)
VH: QVQLQESGPRLVKPSETLSLTCTVAGGSVNSYYWTWIQQSPGKGLEWLGRIYIAGRTNYNPSLTSRIALSVDTSRNQLSLKLTSVTAADTAIYYCARWGAESGDYYYGVDVWGPGTLVTVSS
VL: EIVMTQSPLSLPVTPGEPASISCKSSEGLLHSNGYTYLDWYLQKPGQAPQLLIFLASNRAAGVPDRFSGSGSGTDFTLKISRVEAEDVGVYYCMQAIQSPWTFGPGTKVEIK
notes: Recombinant complete human IgG1, kappa
EC50 [2]: 0.66 nM
binding result (GA2: H-(GA)2HHHHHH-NH2 [3]): no binding (tested: about 4x10^5 pM (last point))
binding result (GA4: H-(GA)4HHHHHH-NH2 [4]): no binding (tested: about 4x10^5 pM (last point))
binding result (GA3: H-(GA)3HHHHHH-NH2): no binding (tested: about 4x10^5 pM (last point))

B3: NI-308.45C2 (antibody, V domains shown)
VH: QLQLQESGPGLVKPSQILSLTCAISGDSVFSNSAAWNWIRQSPSRGLEWLGRTYYRSKWDNDYAPSVKSRISINPDTSKNQFSLQLNSVTPEDTAVYYCAREVAYCGGDCYSVSFDYWGQGTLVTVSS
VL: not shown
notes: as for B2
binding result (GA5: H-(GA)5HHHHHH-NH2): no binding (tested: about 4x10^5 pM (last point))
binding result (GA2: H-(GA)2HHHHHH-NH2 [5]): no binding (tested: about 4x10^5 pM (last point))
binding result (GA4: H-(GA)4HHHHHH-NH2 [6]): no binding (tested: about 4x10^5 pM (last point))
EC50 [7]: 15.2 nM

B4: NI-308.24E11 (antibody, V domains shown)
VH: QVQLQESGPGLVKPSETLSLTCTVSTTSLRSYFWSWIRQPPGKGLEWIGYVYYSGSTIYNPSLKNRVTISIDTSKNQFSLNLRSVTAADTAMYFCARGVPAETDARDFPPYYFDHWGQGTLVTVSS
VL: CDIQLTQSPSSLSASVGNRITFTCQASQDIRYYLNWYQQKPGKAPKLLIYDVSNLDTGVPPRFSGSGSGTNFTFTISSLQPEDIAVYYCQQYEGLPVTFGGGTKVEIK
notes: as for B2
binding result [8]: no binding

B5: NI-308.46E9 (antibody, V domains shown)
VH: QVQLQESGPGLVKPSETLSLTCTVSGASISGSTYYWGWIRQPPGKGLEYIGRIYYSGSTYYNPSLKSRATISVDTSKNQLSLTLSSVTAADTAVYYCVRPFYAGSGNSPFDYWGQGTLVTVSS
VL: CEIVLTQSPATVSVSPGERATLSCRASQSVSTNLAWYQQKPGQPPRLLIYGASTRATGIPARFSGSGSGAEFTLTISSLQSEDFVVYYCQQYNNWPPAFGGGTKVEIK
notes: as for B2
EC50 [9]: > 200 nM

B6: NI-308.6B11 (antibody, V domains shown)
VH: EVQLVQSGAEVKRPGASVKVSCKVSGYTLTELSMHWVRQAPGKGLEWMGGFDPEDGETVYAQKFQGRVTMTEDTSTDTAYMELSSLRSEDTALYHCATYGSSWHWNEGNEGSYYFDYWGQGTLVTVSS
VL: CDIQMTQSPSSLSASVGDRVTITCQASQDISIYLNWYQQKPGKAPKLLIYDASNLETGVPSRFSGSGSGTDFTFTISGLQPEDVARYYCQQYDDLPITFGQGTRLEIK
notes: as for B2
EC50 ((GR)15: H-C(GR)15-OH): 1.3 nM
